Tests used:
[1] = target: full-length human ILT7 on cells (human) (UniProt P59901); experiment: competitive FACS on CHOK1 cells expressing human ILT7; competitor Tab1-Alexa488; negative control, reference of the calculation
[2] = target: full-length human ILT7 on cells (human) (UniProt P59901); experiment: competitive FACS on CHOK1 cells expressing human ILT7; competitor Tab1-Alexa488; negative control that sets the reference signal
[3] = target: full-length human ILT7 on cells (human) (UniProt P59901); experiment: flow cytometry of human PBMCs, gate on pDCs (CD11c low, HLA-DR+, CD123+)

Chain of full-length human ILT7 on cells (human) (P59901 other isoform, or with tags, fused parts or gaps): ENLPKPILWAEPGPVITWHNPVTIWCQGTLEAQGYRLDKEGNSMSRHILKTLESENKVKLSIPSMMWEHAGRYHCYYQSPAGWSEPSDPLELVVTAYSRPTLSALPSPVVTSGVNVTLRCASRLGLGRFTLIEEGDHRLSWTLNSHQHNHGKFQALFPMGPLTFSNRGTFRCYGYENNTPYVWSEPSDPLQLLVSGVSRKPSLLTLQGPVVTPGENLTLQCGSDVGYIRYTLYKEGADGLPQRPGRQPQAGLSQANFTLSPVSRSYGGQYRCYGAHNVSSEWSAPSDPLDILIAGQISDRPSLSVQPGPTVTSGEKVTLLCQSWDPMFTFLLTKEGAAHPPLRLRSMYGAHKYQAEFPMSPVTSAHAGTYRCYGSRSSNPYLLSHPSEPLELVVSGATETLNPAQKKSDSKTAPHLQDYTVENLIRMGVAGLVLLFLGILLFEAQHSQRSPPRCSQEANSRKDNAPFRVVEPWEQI

Inhibition (%) [1]: 0%
MFI of Tab1-Alexa488 [2]: 9670
% targeted cells in subpopulation (pDC) [3]: 2.2%
Substance: isotype antibody hIgG1 (negative control)
